According to US20080311034A1 (published 2008):

T1: recombinant polyhistidine tagged mouse FcγRII (R&D Systems) (mouse, UniProt P08101 40-217, limits assumed)
T1 construct: Bought; also called FcRII
T1 sequence (looked up): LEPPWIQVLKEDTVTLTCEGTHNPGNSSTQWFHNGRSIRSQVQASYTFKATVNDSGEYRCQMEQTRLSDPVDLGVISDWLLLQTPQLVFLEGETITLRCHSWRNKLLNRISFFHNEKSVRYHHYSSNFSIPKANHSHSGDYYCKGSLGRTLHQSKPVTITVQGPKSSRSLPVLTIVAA

T2: recombinant polyhistidine tagged mouse FcγRIII (R&D Systems) (mouse, UniProt P08508 31-215)
T2 construct: Bought
T2 sequence (looked up): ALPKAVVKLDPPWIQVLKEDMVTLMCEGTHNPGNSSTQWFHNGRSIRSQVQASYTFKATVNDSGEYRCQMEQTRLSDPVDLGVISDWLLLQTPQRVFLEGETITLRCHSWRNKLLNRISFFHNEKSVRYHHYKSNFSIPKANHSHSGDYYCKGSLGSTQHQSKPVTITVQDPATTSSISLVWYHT

T3: recombinant polyhistidine tagged mouse FcγRIV (R&D Systems) (mouse, UniProt A0A0B4J1G0 21-203)
T3 construct: Bought
T3 sequence: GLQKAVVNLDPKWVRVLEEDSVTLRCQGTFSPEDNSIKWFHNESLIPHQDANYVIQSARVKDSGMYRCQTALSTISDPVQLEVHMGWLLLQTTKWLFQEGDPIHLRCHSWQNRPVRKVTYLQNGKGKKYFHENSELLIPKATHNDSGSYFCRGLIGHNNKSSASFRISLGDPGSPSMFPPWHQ

T4: recombinant polyhistidine tagged mouse FcγRI (R&D Systems) (mouse, UniProt P26151 25-297)
T4 construct: Bought; also called murine FcγRI
T4 sequence (looked up): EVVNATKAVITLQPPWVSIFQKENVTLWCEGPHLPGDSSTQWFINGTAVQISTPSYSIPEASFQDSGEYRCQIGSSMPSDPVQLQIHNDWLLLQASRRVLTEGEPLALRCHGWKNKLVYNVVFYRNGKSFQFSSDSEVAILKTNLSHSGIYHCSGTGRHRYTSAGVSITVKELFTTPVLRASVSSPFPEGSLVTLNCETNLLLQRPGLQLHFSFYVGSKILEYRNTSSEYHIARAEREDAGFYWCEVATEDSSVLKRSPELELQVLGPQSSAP


How the values were obtained:
[1] = biological target: T5, recombinant human His-tagged FcγRI (extracellular domain, R&D Systems #1257-FC-050) (human, UniProt P12314 16-292); test: ELISA, His-tagged FcγRI captured on HisGrab plate
T5 construct: extracellular domain; Bought; also called CD64; recombinant, soluble, human FcγRI
T5 sequence (P12314 16-292): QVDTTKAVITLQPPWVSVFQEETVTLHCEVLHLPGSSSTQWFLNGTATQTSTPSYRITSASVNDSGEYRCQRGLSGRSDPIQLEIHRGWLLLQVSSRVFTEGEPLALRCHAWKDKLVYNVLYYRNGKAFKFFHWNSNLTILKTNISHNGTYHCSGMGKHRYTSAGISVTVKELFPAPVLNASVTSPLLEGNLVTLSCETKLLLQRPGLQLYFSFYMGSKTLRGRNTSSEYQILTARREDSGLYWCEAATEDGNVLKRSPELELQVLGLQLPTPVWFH
Method: FcγRI (CD64) ELISA —50 μl of a 1 μg/ml solution of recombinant human His-tagged FcγRI (extracellular domain, R&D Systems #1257-FC-050) in ELISA buffer (PBS, pH 7.4, 4 mg/ml BSA, 0.01% Tween-20) was added to each well of HisGrab 96 well plates (Pierce #15142) (Powers G., Notebook 9006, pp. 166-168, 180-181). The plate was incubated with shaking for 3 hours. The plates were washed 3× with 300 μl of wash buffer (PBS, 0.01% Tween-20) on a plate washer. Serial dilutions of the CNTO860 antibody Fc-variant samples were made in ELISA buffer and 50 μl per well of each titration were added in duplicate to the FcγRI-coated plates. The plates were incubated with shaking for 1 hour. The plates were washed 3× with 300 μl of wash buffer on a plate washer. 50 μl of a 1:10,000 dilution of HRP-labeled goat F(ab′)₂ anti-human IgG F(ab′)₂ (Jackson Immunoresearch # 109-036-097) in ELISA buffer was added to each well. The plates were incubated with shaking for 30 minutes. The plates were washed 3× with 300 μl of wash buffer on the plate washer. 50 μl per well TMB substrate (RDI #RDI-TMBSU-1L) was added to each well and developed for 5 minutes. The reaction was stopped by adding 100 μl 0.2 N sulfuric acid. The plates were read at OD450 on an Envision plate reader.

[2] = biological target: T1, recombinant polyhistidine tagged mouse …; test: ELISA, His-tagged mouse receptor captured on copper-coated plate
Method: (§1) Commercially-available recombinant polyhistidine tagged mouse FcγRI, FcγRII, FcγRIII, and FcγRIV (R&D Systems) were diluted to 1 μg/ml in PBS and 100 μl/well was captured onto copper-coated plates (Pierce) overnight at 4° C. Plates were washed three times with wash buffer (0.15M NaCl, 0.02% Tween 20). Non-specific binding was blocked using 200 μl/well SuperBlock (Pierce) for 15 minutes at room temperature. Plates were washed three times as above. […] Plates were washed three times as above to remove unbound mAb. CNTO 860 variants that bound to plated receptors were detected using 100 μl/well HRP-labeled goat F(ab′)₂ anti-human IgG F(ab′)₂ (Jackson ImmunoResearch) diluted 1:5,000 in PBS incubated at room temperature for 1 hour. Plates were washed five times using wash buffer as above, and developed using 100 μl/well TMB Stable Stop substrate (Fitzgerald Industries) stopped with 0.5M HCl. Absorbance was detected at 450 nm.
(§2) All binding assays were in an ELISA format, with recombinant soluble receptor captured on coated EIA plates.

[3] = biological target: T2, recombinant polyhistidine tagged mouse …; test: as above
Method: as §1, §2

[4] = biological target: T3, recombinant polyhistidine tagged mouse …; test: as above
Method: as §1, §2

[5] = biological target: T4, recombinant polyhistidine tagged mouse …; test: as above
Method: as §1, §2

Row | Binder | concentration (ng/ml) required for an O.D. value of 1.0 [1] | ECOD1 (concentration required for an O.D. value of 1.0) [2] | ECOD1 (concentration required for an O.D. value of 1.0) [3] | ECOD1 (concentration required for an O.D. value of 1.0) [4] | ECOD1 (concentration required for an O.D. value of 1.0) [5]
1 | CHO-CNTO 860 WT (antibody, human IgG1, kappa, N-linked glycan at heavy chain Asn297 (CHO-type, highly fucosylated); not carried by the letters, Anti-human tissue factor human IgG1/kappa; transiently expressed in CHO cells (plasmids p4145/p4146; CHO Abs typically 95% fucosylated), purified by protein A; also called CNTO 860 WT from CHO cells; WT (CHO cell-derived); copies: 2 + 2) heavy: not shown light: DIQMTQSPSSLSASVGDRVTITCKASQDIRKYLNWYQQKPGKAPKLLIYYATSLADGVPSRFSGSGSGTDYTFTISSLQPEDIATYYCLQHGESPYTFGQGTKLEITRTVAAPSVFIFPPSDEQLKSGTASVVCLLNNFYPREAKVQWKVDNALQSGNSQESVTEQDSKDSTYSLSSTLTLSKADYEKHKVYACEVTHQGLSSPVTKSFNRGEC | 480 ng/mL | 4000 ng/mL | 4000 ng/mL | 60 ng/mL | 
2 | CHO-CNTO 860 I332E (antibody, N-linked glycan at Asn297 of the heavy chain (CHO-type, highly fucosylated); not carried by the letters, IgG1/kappa Fc variant; transiently expressed in CHO cells (p4157/p4146); also called I332E (CHO cell-derived); I332E from CHO cells; copies: 2 + 2) heavy: not shown light: DIQMTQSPSSLSASVGDRVTITCKASQDIRKYLNWYQQKPGKAPKLLIYYATSLADGVPSRFSGSGSGTDYTFTISSLQPEDIATYYCLQHGESPYTFGQGTKLEITRTVAAPSVFIFPPSDEQLKSGTASVVCLLNNFYPREAKVQWKVDNALQSGNSQESVTEQDSKDSTYSLSSTLTLSKADYEKHKVYACEVTHQGLSSPVTKSFNRGEC | 300 ng/mL | 1500 ng/mL | 1600 ng/mL | 13 ng/mL | 4000 ng/mL
3 | CHO-CNTO 860 A330I (antibody, IgG1, N-linked glycan at Asn297 of the heavy chain (CHO-type, highly fucosylated); not carried by the letters, IgG1/kappa Fc variant; EU numbering; also called A330I (CHO cell-derived); copies: 2 + 2) heavy: not shown light: DIQMTQSPSSLSASVGDRVTITCKASQDIRKYLNWYQQKPGKAPKLLIYYATSLADGVPSRFSGSGSGTDYTFTISSLQPEDIATYYCLQHGESPYTFGQGTKLEITRTVAAPSVFIFPPSDEQLKSGTASVVCLLNNFYPREAKVQWKVDNALQSGNSQESVTEQDSKDSTYSLSSTLTLSKADYEKHKVYACEVTHQGLSSPVTKSFNRGEC | 750 ng/mL | 8000 ng/mL | 12000 ng/mL | 130 ng/mL | 90000 ng/mL
4 | CHO-CNTO 860 A330Y (antibody, human IgG1, kappa, N-linked glycan at Asn297 of the heavy chain (CHO-type, highly fucosylated); not carried by the letters, IgG1/kappa Fc variant; transiently expressed in CHO cells (p4183/p4146); EU numbering; also called A330Y (CHO cell-derived); copies: 2 + 2) heavy: not shown light: DIQMTQSPSSLSASVGDRVTITCKASQDIRKYLNWYQQKPGKAPKLLIYYATSLADGVPSRFSGSGSGTDYTFTISSLQPEDIATYYCLQHGESPYTFGQGTKLEITRTVAAPSVFIFPPSDEQLKSGTASVVCLLNNFYPREAKVQWKVDNALQSGNSQESVTEQDSKDSTYSLSSTLTLSKADYEKHKVYACEVTHQGLSSPVTKSFNRGEC | 420 ng/mL | 2700 ng/mL | 4000 ng/mL | 100 ng/mL | 5000 ng/mL
5 | CHO-CNTO 860 I332E/A330I (antibody, human IgG1, kappa, Heavy chain N297 carries the CHO-type N-linked glycan (about 95% fucosylated); not carried by the letters., IgG1/kappa Fc variant; transiently expressed in CHO cells (p4185/p4146); EU numbering; also called A330I/I332E (CHO cell-derived); A330I/I332E variant from CHO cells; copies: 2 + 2) heavy: not shown light: DIQMTQSPSSLSASVGDRVTITCKASQDIRKYLNWYQQKPGKAPKLLIYYATSLADGVPSRFSGSGSGTDYTFTISSLQPEDIATYYCLQHGESPYTFGQGTKLEITRTVAAPSVFIFPPSDEQLKSGTASVVCLLNNFYPREAKVQWKVDNALQSGNSQESVTEQDSKDSTYSLSSTLTLSKADYEKHKVYACEVTHQGLSSPVTKSFNRGEC | 420 ng/mL | 600 ng/mL | 800 ng/mL | 18 ng/mL | 3000 ng/mL

Second part, the binder after the results:

Row | concentration (ng/ml) required for an O.D. value of 1.0 [1] | ECOD1 (concentration required for an O.D. value of 1.0) [2] | ECOD1 (concentration required for an O.D. value of 1.0) [3] | ECOD1 (concentration required for an O.D. value of 1.0) [4] | ECOD1 (concentration required for an O.D. value of 1.0) [5] | Binder
6 | 310 ng/mL | 3000 ng/mL | 3000 ng/mL | 7 ng/mL | 10000 ng/mL | YB2/0-CNTO 860 A330I/I332E (antibody, human IgG1, kappa, N-linked glycan at heavy chain Asn297 (YB2/0-type, low fucose); not carried by the letters, IgG1/kappa Fc variant; stably expressed in YB2/0 cells (p4178/p2402); EU numbering; also called A330I/I332E (YB2/0 cell-derived); A330I/I332E from YB2/0 cells; copies: 2 + 2) heavy: not shown light: DIQMTQSPSSLSASVGDRVTITCKASQDIRKYLNWYQQKPGKAPKLLIYYATSLADGVPSRFSGSGSGTDYTFTISSLQPEDIATYYCLQHGESPYTFGQGTKLEITRTVAAPSVFIFPPSDEQLKSGTASVVCLLNNFYPREAKVQWKVDNALQSGNSQESVTEQDSKDSTYSLSSTLTLSKADYEKHKVYACEVTHQGLSSPVTKSFNRGEC
7 | 570 ng/mL | 7000 ng/mL | 8000 ng/mL | 15 ng/mL | 25000 ng/mL | YB2/0-CNTO 860 A330I (antibody, IgG1, N-linked glycan at heavy chain Asn297 (YB2/0-type, low fucose); not carried by the letters, IgG1/kappa Fc variant; stably expressed in YB2/0 cells (p4177/p2402); EU numbering; also called A330I (YB2/0 cell-derived); A330I mutant expressed in YB2/0 cells; copies: 2 + 2) heavy: not shown light: DIQMTQSPSSLSASVGDRVTITCKASQDIRKYLNWYQQKPGKAPKLLIYYATSLADGVPSRFSGSGSGTDYTFTISSLQPEDIATYYCLQHGESPYTFGQGTKLEITRTVAAPSVFIFPPSDEQLKSGTASVVCLLNNFYPREAKVQWKVDNALQSGNSQESVTEQDSKDSTYSLSSTLTLSKADYEKHKVYACEVTHQGLSSPVTKSFNRGEC
8 | 480 ng/mL | 900 ng/mL | 1100 ng/mL | 11 ng/mL | 1700 ng/mL | CHO-CNTO 860 I332E/S239D (antibody, human IgG1, kappa, Heavy chain N297 carries the CHO-type N-linked glycan (about 95% fucosylated); not carried by the letters., IgG1/kappa Fc variant; transiently expressed in CHO cells (p4186/p4146); EU numbering; also called S239D/I332E (CHO cell-derived); copies: 2 + 2) heavy: not shown light: DIQMTQSPSSLSASVGDRVTITCKASQDIRKYLNWYQQKPGKAPKLLIYYATSLADGVPSRFSGSGSGTDYTFTISSLQPEDIATYYCLQHGESPYTFGQGTKLEITRTVAAPSVFIFPPSDEQLKSGTASVVCLLNNFYPREAKVQWKVDNALQSGNSQESVTEQDSKDSTYSLSSTLTLSKADYEKHKVYACEVTHQGLSSPVTKSFNRGEC
9 | 420 ng/mL | 6000 ng/mL | 6500 ng/mL | 30 ng/mL | 4000 ng/mL | YB2/0-CNTO 860 A330Y (antibody, human IgG1, kappa, N-linked glycan at heavy chain Asn297 (YB2/0-type, low fucose); not carried by the letters, IgG1/kappa Fc variant; stably expressed in YB2/0 cells (p4176/p2402); EU numbering; also called A330Y (YB2/0 cell-derived); copies: 2 + 2) heavy: not shown light: DIQMTQSPSSLSASVGDRVTITCKASQDIRKYLNWYQQKPGKAPKLLIYYATSLADGVPSRFSGSGSGTDYTFTISSLQPEDIATYYCLQHGESPYTFGQGTKLEITRTVAAPSVFIFPPSDEQLKSGTASVVCLLNNFYPREAKVQWKVDNALQSGNSQESVTEQDSKDSTYSLSSTLTLSKADYEKHKVYACEVTHQGLSSPVTKSFNRGEC
